In paper PMC3584020 one finds response (Units β-Galactosidase) data, which are given here for one molecule.

The assay deals with LexA-PRAME, P78395. Nature of the assay: yeast two hybrid. The note with it: chain shown with the change; LexA-PRAME (1-509); β-galactosidase activity normalised to amount of protein in the extracts; parent: est. 160; read off a plot.
Sequence of LexA-PRAME, P78395 (P78395 whole entry): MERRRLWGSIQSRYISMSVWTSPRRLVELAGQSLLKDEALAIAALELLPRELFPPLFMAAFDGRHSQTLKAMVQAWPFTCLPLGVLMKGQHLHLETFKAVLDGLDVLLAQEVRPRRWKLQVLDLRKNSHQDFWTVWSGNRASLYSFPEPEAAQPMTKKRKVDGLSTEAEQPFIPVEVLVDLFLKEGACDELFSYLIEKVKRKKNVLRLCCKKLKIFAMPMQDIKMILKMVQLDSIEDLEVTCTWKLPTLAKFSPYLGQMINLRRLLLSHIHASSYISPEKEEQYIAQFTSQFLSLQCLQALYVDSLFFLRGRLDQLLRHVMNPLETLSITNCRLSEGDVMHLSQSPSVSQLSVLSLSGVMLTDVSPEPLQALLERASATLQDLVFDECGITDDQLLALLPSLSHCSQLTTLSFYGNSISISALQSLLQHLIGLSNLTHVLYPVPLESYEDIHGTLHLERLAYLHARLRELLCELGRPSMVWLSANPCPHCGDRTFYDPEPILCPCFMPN

B1: GAL4 AD-fused C. elegans ELC (wELC) L47D; L49D; Y88D; Y91D (protein)
chain: MADQNNAIQCDQDAAQPKQYGGIEGPTSQYVKLVSSDDHEFIIKREDADTSGTIRAMLSGPGVYAENESNVVYFREIPSHVLQKVCQDFADKVRYTHAATEIPEFPIPPDVALELLMAANFLDC
With B1, the response (Units β-Galactosidase) came out at 5.
